The values below come from paper PMC6522849.

This series concerns T1, BsrR (Enterococcus faecium NW2), ORF:b1c0129b.
T1 sequence: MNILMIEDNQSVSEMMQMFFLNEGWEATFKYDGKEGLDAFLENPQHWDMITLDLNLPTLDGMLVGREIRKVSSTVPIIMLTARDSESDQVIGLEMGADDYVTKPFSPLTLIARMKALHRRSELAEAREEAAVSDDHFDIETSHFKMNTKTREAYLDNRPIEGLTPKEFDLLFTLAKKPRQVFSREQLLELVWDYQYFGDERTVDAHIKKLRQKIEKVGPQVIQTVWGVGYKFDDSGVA
Put plainly: EMSA.

“AAATAAAACTCCTTTTTTATTGGAATAAGTTTATCTTAACAAAGAATGAACAAAAGACAAACCTTTCGTGAAGAATTCCTGAACATATTGGTTCAGTCAACAATTTAGAGTATACTATAAGAAGAGAATTTAGGAGGGAAAGA (double strand) [bsrX upstream intergenic region, 143 bp]”: the binding result was “binds”.
